Measurements reported in patent US20040014147A1 (RIGEL PHARMACEUTICALS, published 2004).
Read-outs that look alike come from different tables or passages of the source. Where no end group is shown, it is not given here.

Experiments:
human adenosine kinase [1] = target: T1, human adenosine kinase (human, UniProt P55263 22-362); assay: cell-based or functional assay
human adenosine kinase [2] = target: T1, human adenosine kinase; assay: cell-based or functional assay; remark: listed apart in the source

T1 sequence (P55263 other isoform, or with tags, fused parts or gaps): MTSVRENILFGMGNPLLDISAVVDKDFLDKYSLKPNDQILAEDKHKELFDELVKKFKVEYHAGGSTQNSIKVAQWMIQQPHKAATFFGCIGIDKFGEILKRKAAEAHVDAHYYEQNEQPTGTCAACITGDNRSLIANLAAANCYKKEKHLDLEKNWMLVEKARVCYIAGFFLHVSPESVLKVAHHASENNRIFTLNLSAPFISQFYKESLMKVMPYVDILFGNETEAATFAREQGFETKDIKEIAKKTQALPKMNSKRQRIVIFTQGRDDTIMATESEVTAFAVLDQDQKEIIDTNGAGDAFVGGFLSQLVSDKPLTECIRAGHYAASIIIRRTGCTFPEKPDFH

Row | Reporter Ratio (human adenosine kinase [1]) | endogenous ε inhibition ratio (human adenosine kinase [1]) | Reporter Ratio (human adenosine kinase [2]) | Binder
1 | – | – | 1.13 | DTMQVQCGAGRSGYVVAFWDVGP (peptide, not shown: large carriers) [peptide AR02E8VC]
2 | – | – | 1.07 | DTMQVQCGVCRSGAGVAFWDVGP (peptide, not shown: large carriers) [peptide AR02E8YV]

Continued, binder first:

Row | Binder | Reporter Ratio (human adenosine kinase [1]) | endogenous ε inhibition ratio (human adenosine kinase [1]) | Reporter Ratio (human adenosine kinase [2])
3 | DTMQVQCGVCRSGYVVAFWDVGP (peptide, not shown: large carriers, cysteine pairing not given here; also: expressed as GAL4/BFP-linker-peptide fusion, fusion sequences not given here) [peptide AR02E8 wt] | 1.77 | 15.3 | 2.93
4 | DTMQVQCGVCAGGYVVAFWDVGP (peptide, not shown: large carriers) [peptide AR02E8RS] | – | – | 1.46
